In paper PMC3230689 one finds binding result, binding signal and Kd data, which are given here for 5 molecules.

Where only a bound is given, the exact number is not on record here.

For data set [1], the target named is T1, FUS (FLAGHA-FUS-His6) (human, UniProt P35637 1-526). The data set can be described thus: EMSA. (In general: In EMSA bound probe runs differently from free probe, usually more slowly.)
Data set [2] deals with T1, FUS (FLAGHA-FUS-His6). The data set is described as follows: EMSA. This is another data set of the same source.

T1 sequence (P35637 whole entry): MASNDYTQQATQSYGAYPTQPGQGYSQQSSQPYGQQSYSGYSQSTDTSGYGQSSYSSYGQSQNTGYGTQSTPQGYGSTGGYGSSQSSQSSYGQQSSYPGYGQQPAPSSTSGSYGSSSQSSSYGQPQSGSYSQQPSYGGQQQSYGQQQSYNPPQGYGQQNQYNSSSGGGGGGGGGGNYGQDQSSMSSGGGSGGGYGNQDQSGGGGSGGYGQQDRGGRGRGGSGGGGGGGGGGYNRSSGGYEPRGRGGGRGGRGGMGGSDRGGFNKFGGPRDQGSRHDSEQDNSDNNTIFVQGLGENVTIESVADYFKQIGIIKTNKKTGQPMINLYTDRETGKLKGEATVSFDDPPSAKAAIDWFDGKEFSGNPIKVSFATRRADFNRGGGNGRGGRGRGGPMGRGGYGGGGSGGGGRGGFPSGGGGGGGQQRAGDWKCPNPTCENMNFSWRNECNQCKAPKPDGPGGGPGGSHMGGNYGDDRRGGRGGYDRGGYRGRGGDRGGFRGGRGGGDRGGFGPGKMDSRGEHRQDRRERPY

On to GAUUAAGAUAUAACUACUCUAUCUUCUGAACAUGACA (structured_RNA) [SON_BA (reconstituted right-left stem)], for which the binding result in the data set with FUS (FLAGHA-FUS-His6) [1] is “binds”. For the molecule GGUGGUGGUGGUGGUGGUGGUGGUGGUGGUGGUGGU (ssRNA) [GGU trinucleotide repeat (x12)], in the data set with FUS (FLAGHA-FUS-His6) [2], the binding signal was > 15 fold lower Kd than SON_AB (at least; as worded in text).

AUUAUUAUUAUUAUUAUUAUUAUUAUUAUUAUUAUU (structured_RNA) [AUU trinucleotide repeat (x12)]: binding with FUS (FLAGHA-FUS-His6) [1] was put at a Kd of 198 nM. For the molecule GAUUUAUCUUUAACUACUCAAGAUACUGAACAUGACA (structured_RNA) [SON_AB (natural left-right stem)], in the data set with FUS (FLAGHA-FUS-His6) [1], the Kd was determined as 148 nM. Take GAUUAAGAUAUAACUACUCAAGAUACUGAACAUGACA (ssRNA) [SON_BB (non-complementary right-right stem)]: the binding result in the data set with FUS (FLAGHA-FUS-His6) [1] is on record as “no binding”.

What is called Kd is a measure of binding affinity in units of concentration. Read a low Kd as tighter binding.
